Starred links: 1 amine or outer side, 2 acyl side, 3 side chain; linkers in the order of their positions; H or OH if unused. Positions of bridges follow the written chain, without caps; N, C: chain ends. Non-standard residues stand in square brackets, D forms with d. Residues, ends and D or L forms follow the SMILES beside them. Groups on a side chain read outwards from the residue. *: point of attachment. Trp(1-Me) = Cn1cc(C[C@H](N)C(=O)O)c2ccccc21; Abu(4-yl) = O=C([C@H](CC[*:3])N[*:1])[*:2]; C18 diacid = O=C(O)CCCCCCCCCCCCCCCCC(=O)*; γGlu = O=C(O)[C@H](CCC(=O)[*:2])N[*:1]; 1Nal = N[C@@H](Cc1cccc2ccccc12)C(=O)O; 2Nal = N[C@@H](Cc1ccc2ccccc2c1)C(=O)O; AEEA = NCCOCCOCC(=O)O; Sar = CNCC(=O)O
Legend:
Human C3 [1] = biological target: T1, Human C3 (Homo sapiens, UniProt P01024); test: Affinity measurement by surface plasmon resonance (SPR) with immobilized C3; assay type: binding; conditions: Table 7; immobilized C3, 25° C., pH 7.4
T1 construct: purchased Complement tech A1 13c (so in the source)
Protocol: Surface plasmon resonance (SPR) was used to characterize peptides with respect to their binding affinity (Kd) for C3. Human C3 (Complement tech cat #A1 13c) was immobilised on individual flow cells of CM5 sensor chips (GE Healthcare) using standard amine coupling to a density of approximately 3000 resonance units (RU) in a buffer consisting of 10 mM phosphate pH 7.4, 150 mM NaCl, 0.05% Tween20. For interaction experiments a multi-cycle experiment approach was used and performed using either a Biacore™ T200 or Biacore™ X100 instrument (GE Healthcare) at 25° C. Peptides were injected in increasing concentration series (5-8 different concentrations) for 60-120 s at a flow rate of 30 μL/min in a buffer consisting of 10 mM Tris buffer at pH 7.4, with 150 mM NaCl and 0.05% Tween20. This was followed by a dissociation period for up to 10 min. […] Sensorgrams were double-referenced (reference surface, blanks) prior to analysis of the kinetic profiles by globally fitting data to a 1:1 Langmuir binding model to obtain association and dissociation rates for calculation of the equilibrium dissociation constant Kd. Each peptide was tested at in at least 2 independent experiments.

[2] = tested on: classical complement pathway; test: In vitro haemolysis assay (inhibition of classical complement pathway); assay type: cell-based, human; conditions: Table 3; human serum, sensitized sheep red blood cells; read-out: IC50[nM], in vitro analysis of inhibition of hemolysis
Summary of the method: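 Serially diluted compound (9 points) was preincubated 15 min at room temperature with diluted human serum, titrated per batch to give 70-90% maximal haemolysis, in Tris/casein buffer pH 7.4 with Mg2+/Ca2+. Antibody-sensitized sheep erythrocytes were then added for 30 min at 37° C, and the reaction was stopped with EDTA. Haemolysis was read at A405, with IC50 from 4PL fit.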

Human C3 [3] = biological target: T2, Human C3 (human, UniProt P01024 23-1663); test: SPR, C3 immobilised
T2 construct: In SPR the bought human C3 was immobilised on CM5 chips by amine coupling; In the haemolysis assay the C3 is that of diluted human serum; also called complement C3
T2 sequence (P01024 23-1663 limits assumed): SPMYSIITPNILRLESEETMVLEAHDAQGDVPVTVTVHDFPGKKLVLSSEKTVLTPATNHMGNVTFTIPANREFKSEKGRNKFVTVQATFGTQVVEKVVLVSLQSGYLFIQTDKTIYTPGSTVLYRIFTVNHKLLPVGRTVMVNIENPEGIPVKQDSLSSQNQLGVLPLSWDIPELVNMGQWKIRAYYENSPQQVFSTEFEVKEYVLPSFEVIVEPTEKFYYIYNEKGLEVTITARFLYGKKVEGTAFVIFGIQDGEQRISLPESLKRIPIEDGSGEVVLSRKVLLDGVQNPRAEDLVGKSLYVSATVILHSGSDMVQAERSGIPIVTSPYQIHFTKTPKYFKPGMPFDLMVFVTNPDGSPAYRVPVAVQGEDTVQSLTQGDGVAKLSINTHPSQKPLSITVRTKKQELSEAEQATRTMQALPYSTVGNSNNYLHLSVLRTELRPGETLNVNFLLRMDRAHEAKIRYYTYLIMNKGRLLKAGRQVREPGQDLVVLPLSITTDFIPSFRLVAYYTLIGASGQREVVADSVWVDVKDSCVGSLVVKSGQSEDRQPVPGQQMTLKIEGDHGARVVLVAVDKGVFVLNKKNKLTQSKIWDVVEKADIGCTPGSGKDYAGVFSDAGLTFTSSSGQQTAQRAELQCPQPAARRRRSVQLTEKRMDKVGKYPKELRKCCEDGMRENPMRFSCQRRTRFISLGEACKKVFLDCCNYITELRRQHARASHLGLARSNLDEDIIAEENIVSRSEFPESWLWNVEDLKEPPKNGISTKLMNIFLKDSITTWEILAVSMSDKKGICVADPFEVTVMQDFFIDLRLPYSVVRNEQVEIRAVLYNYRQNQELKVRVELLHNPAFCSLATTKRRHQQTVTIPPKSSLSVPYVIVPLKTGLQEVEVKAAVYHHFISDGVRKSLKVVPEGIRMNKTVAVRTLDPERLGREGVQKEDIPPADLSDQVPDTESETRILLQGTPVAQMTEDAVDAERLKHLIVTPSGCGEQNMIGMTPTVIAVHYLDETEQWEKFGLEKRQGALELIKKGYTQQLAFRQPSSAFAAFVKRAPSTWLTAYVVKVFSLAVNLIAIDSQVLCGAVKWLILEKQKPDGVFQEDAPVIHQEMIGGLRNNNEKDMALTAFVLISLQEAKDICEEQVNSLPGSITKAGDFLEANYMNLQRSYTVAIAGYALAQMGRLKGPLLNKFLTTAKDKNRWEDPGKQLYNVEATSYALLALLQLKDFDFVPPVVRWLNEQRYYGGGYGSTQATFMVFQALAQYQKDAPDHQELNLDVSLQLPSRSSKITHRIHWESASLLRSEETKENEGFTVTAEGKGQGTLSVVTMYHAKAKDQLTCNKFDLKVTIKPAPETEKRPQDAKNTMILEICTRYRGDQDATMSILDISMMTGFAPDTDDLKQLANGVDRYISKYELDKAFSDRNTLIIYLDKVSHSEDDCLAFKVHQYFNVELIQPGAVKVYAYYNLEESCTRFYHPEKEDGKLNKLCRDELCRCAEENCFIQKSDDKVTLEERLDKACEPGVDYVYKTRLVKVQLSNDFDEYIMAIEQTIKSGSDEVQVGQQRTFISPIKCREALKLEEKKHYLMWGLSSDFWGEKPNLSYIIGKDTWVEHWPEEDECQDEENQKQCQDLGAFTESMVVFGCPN
Summary of the method: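 Peptide series (5-8 concentrations, 60-120 s, up to 10 min dissociation, Tris pH 7.4 running buffer) flowed over ~3000 RU amine-coupled human C3; MgCl₂ regeneration; at least two independent runs.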

Human C3 [4] = biological target: T2, Human C3; test: cell-based or functional assay

Molecule	Kd (Human C3 [1])	Kd (Human C3 [3])	IC50 [2]	IC50[nM], inhibition of hemolysis (Human C3 [4])
Ac-EGSAICIWQDWGEHRCT-NH2 (disulfide 6-16; SMILES CC[C@H](C)[C@H](NC(=O)[C@H](C)NC(=O)[C@H](CO)NC(=O)CNC(=O)[C@H](CCC(=O)O)NC(C)=O)C(=O)N[C@H]1CSSC[C@@H](C(=O)N[C@H](C(N)=O)[C@@H](C)O)NC(=O)[C@H](CCCNC(=N)N)NC(=O)[C@H](Cc2c[nH]cn2)NC(=O)[C@H](CCC(=O)O)NC(=O)CNC(=O)[C@H](Cc2c[nH]c3ccccc23)NC(=O)[C@H](CC(=O)O)NC(=O)[C@H](CCC(N)=O)NC(=O)[C@H](Cc2c[nH]c3ccccc23)NC(=O)[C@H]([C@@H](C)CC)NC1=O) [Compound 29]	–	21 nM	–	< 100 nM
Ac-FCI[1Nal]QDWGEHRCTGAES-NH2 (disulfide 2-12; SMILES CC[C@H](C)[C@@H]1NC(=O)[C@@H](NC(=O)[C@H](Cc2ccccc2)NC(C)=O)CSSC[C@@H](C(=O)N[C@H](C(=O)NCC(=O)N[C@@H](C)C(=O)N[C@@H](CCC(=O)O)C(=O)N[C@@H](CO)C(N)=O)[C@@H](C)O)NC(=O)[C@H](CCCNC(=N)N)NC(=O)[C@H](Cc2c[nH]cn2)NC(=O)[C@H](CCC(=O)O)NC(=O)CNC(=O)[C@H](Cc2c[nH]c3ccccc23)NC(=O)[C@H](CC(=O)O)NC(=O)[C@H](CCC(N)=O)NC(=O)[C@H](Cc2cccc3ccccc23)NC1=O) [Compound 63]	–	4.3 nM	–	< 100 nM
H-[dY]FCI[Trp(1-Me)]QDW[Sar]EHRCTGAES-NH2 (disulfide 3-13; SMILES CC[C@H](C)[C@@H]1NC(=O)[C@@H](NC(=O)[C@H](Cc2ccccc2)NC(=O)[C@H](N)Cc2ccc(O)cc2)CSSC[C@@H](C(=O)N[C@H](C(=O)NCC(=O)N[C@@H](C)C(=O)N[C@@H](CCC(=O)O)C(=O)N[C@@H](CO)C(N)=O)[C@@H](C)O)NC(=O)[C@H](CCCNC(=N)N)NC(=O)[C@H](Cc2c[nH]cn2)NC(=O)[C@H](CCC(=O)O)NC(=O)CN(C)C(=O)[C@H](Cc2c[nH]c3ccccc23)NC(=O)[C@H](CC(=O)O)NC(=O)[C@H](CCC(N)=O)NC(=O)[C@H](Cc2cn(C)c3ccccc23)NC1=O) [Compound 73]	–	0.3 nM	–	< 100 nM
Ac-EGSAICI[2Nal]QDWGEHRC[Sar]E-NH2 (disulfide 6-16; SMILES CC[C@H](C)[C@H](NC(=O)[C@H](C)NC(=O)[C@H](CO)NC(=O)CNC(=O)[C@H](CCC(=O)O)NC(C)=O)C(=O)N[C@H]1CSSC[C@@H](C(=O)N(C)CC(=O)N[C@@H](CCC(=O)O)C(N)=O)NC(=O)[C@H](CCCNC(=N)N)NC(=O)[C@H](Cc2c[nH]cn2)NC(=O)[C@H](CCC(=O)O)NC(=O)CNC(=O)[C@H](Cc2c[nH]c3ccccc23)NC(=O)[C@H](CC(=O)O)NC(=O)[C@H](CCC(N)=O)NC(=O)[C@H](Cc2ccc3ccccc3c2)NC(=O)[C@H]([C@@H](C)CC)NC1=O) [Compound 50]	–	13 nM	–	< 100 nM
Ac-EGSAICI[Trp(1-Me)]QDWGEHRC[Sar]E-NH2 (disulfide 6-16; SMILES CC[C@H](C)[C@H](NC(=O)[C@H](C)NC(=O)[C@H](CO)NC(=O)CNC(=O)[C@H](CCC(=O)O)NC(C)=O)C(=O)N[C@H]1CSSC[C@@H](C(=O)N(C)CC(=O)N[C@@H](CCC(=O)O)C(N)=O)NC(=O)[C@H](CCCNC(=N)N)NC(=O)[C@H](Cc2c[nH]cn2)NC(=O)[C@H](CCC(=O)O)NC(=O)CNC(=O)[C@H](Cc2c[nH]c3ccccc23)NC(=O)[C@H](CC(=O)O)NC(=O)[C@H](CCC(N)=O)NC(=O)[C@H](Cc2cn(C)c3ccccc23)NC(=O)[C@H]([C@@H](C)CC)NC1=O) [Compound 49]	–	3.2 nM	–	< 100 nM
Ac-FCIWQDWGEHRCTGAE-NH2 (disulfide 2-12; SMILES CC[C@H](C)[C@@H]1NC(=O)[C@@H](NC(=O)[C@H](Cc2ccccc2)NC(C)=O)CSSC[C@@H](C(=O)N[C@H](C(=O)NCC(=O)N[C@@H](C)C(=O)N[C@@H](CCC(=O)O)C(N)=O)[C@@H](C)O)NC(=O)[C@H](CCCNC(=N)N)NC(=O)[C@H](Cc2c[nH]cn2)NC(=O)[C@H](CCC(=O)O)NC(=O)CNC(=O)[C@H](Cc2c[nH]c3ccccc23)NC(=O)[C@H](CC(=O)O)NC(=O)[C@H](CCC(N)=O)NC(=O)[C@H](Cc2c[nH]c3ccccc23)NC1=O) [Compound 43]	–	3.3 nM	–	< 100 nM

Continued, in another order:

Kd (Human C3 [1])	Kd (Human C3 [3])	Molecule	IC50 [2]	IC50[nM], inhibition of hemolysis (Human C3 [4])
16 nM	–	CC[C@H](C)[C@@H]1NC(=O)[C@@H](NC(=O)[C@H](Cc2ccccc2)NC(=O)[C@H](CCC(=O)O)NC(=O)[C@H](CO)NC(C)=O)CCSC[C@@H](C(=O)N(C)CC(=O)N[C@@H](CCC(=O)O)C(=O)NCC(=O)N[C@@H](CCC(=O)O)C(=O)NCCOCCOCC(=O)NCCOCCOCC(=O)N[C@@H](CCCCNC(=O)CC[C@H](NC(=O)CNC(=O)CC[C@H](NC(=O)CCCCCCCCCCCCCCCCC(=O)O)C(=O)O)C(=O)O)C(N)=O)NC(=O)[C@H](CCCNC(=N)N)NC(=O)[C@H](Cc2c[nH]cn2)NC(=O)[C@H](CCC(=O)O)NC(=O)CNC(=O)[C@H](Cc2c[nH]c3ccccc23)NC(=O)[C@H](CC(=O)O)NC(=O)[C@H](CCC(N)=O)NC(=O)[C@H](Cc2cn(C)c3ccccc23)NC1=O [Compound 152] (Ac-SEF[Abu(4-yl)]I[Trp(1-Me)]QDWGEHRC[Sar]EGE[AEEA][AEEA]K([γGlu-Gly-γGlu-C18 diacid])-NH2; thioether 4-14)	< 100 nM	–
1.5 nM	–	CC[C@H](C)[C@@H]1NC(=O)[C@@H](NC(=O)[C@H](Cc2ccccc2)NC(=O)[C@H](CCC(=O)O)NC(=O)[C@H](CO)NC(C)=O)CSSC[C@@H](C(=O)N(C)CC(=O)N[C@@H](CCC(=O)O)C(=O)N[C@@H](C)C(N)=O)NC(=O)[C@H](CCCNC(=N)N)NC(=O)[C@H](Cc2c[nH]cn2)NC(=O)[C@H](CCC(=O)O)NC(=O)CNC(=O)[C@H](Cc2c[nH]c3ccccc23)NC(=O)[C@H](CC(=O)O)NC(=O)[C@H](CCC(N)=O)NC(=O)[C@H](Cc2cn(C)c3ccccc23)NC1=O [Compound 75] (Ac-SEFCI[Trp(1-Me)]QDWGEHRC[Sar]EA-NH2; disulfide 4-14)	< 100 nM	–
–	9.7 nM	Ac-SE[Sar]CI[Trp(1-Me)]QDWGEHRC[Sar]EA-NH2 (disulfide 4-14; SMILES CC[C@H](C)[C@@H]1NC(=O)[C@@H](NC(=O)CN(C)C(=O)[C@H](CCC(=O)O)NC(=O)[C@H](CO)NC(C)=O)CSSC[C@@H](C(=O)N(C)CC(=O)N[C@@H](CCC(=O)O)C(=O)N[C@@H](C)C(N)=O)NC(=O)[C@H](CCCNC(=N)N)NC(=O)[C@H](Cc2c[nH]cn2)NC(=O)[C@H](CCC(=O)O)NC(=O)CNC(=O)[C@H](Cc2c[nH]c3ccccc23)NC(=O)[C@H](CC(=O)O)NC(=O)[C@H](CCC(N)=O)NC(=O)[C@H](Cc2cn(C)c3ccccc23)NC1=O) [Compound 81]	–	< 100 nM
–	2.6 nM	Ac-SEFCI[Trp(1-Me)]QDWGEHKC[Sar]EA-NH2 (disulfide 4-14; SMILES CC[C@H](C)[C@@H]1NC(=O)[C@@H](NC(=O)[C@H](Cc2ccccc2)NC(=O)[C@H](CCC(=O)O)NC(=O)[C@H](CO)NC(C)=O)CSSC[C@@H](C(=O)N(C)CC(=O)N[C@@H](CCC(=O)O)C(=O)N[C@@H](C)C(N)=O)NC(=O)[C@H](CCCCN)NC(=O)[C@H](Cc2c[nH]cn2)NC(=O)[C@H](CCC(=O)O)NC(=O)CNC(=O)[C@H](Cc2c[nH]c3ccccc23)NC(=O)[C@H](CC(=O)O)NC(=O)[C@H](CCC(N)=O)NC(=O)[C@H](Cc2cn(C)c3ccccc23)NC1=O) [Compound 86]	–	< 100 nM
–	1.3 nM	Ac-EFCI[Trp(1-Me)]QDWGEHRCES-NH2 (disulfide 3-13; SMILES CC[C@H](C)[C@@H]1NC(=O)[C@@H](NC(=O)[C@H](Cc2ccccc2)NC(=O)[C@H](CCC(=O)O)NC(C)=O)CSSC[C@@H](C(=O)N[C@@H](CCC(=O)O)C(=O)N[C@@H](CO)C(N)=O)NC(=O)[C@H](CCCNC(=N)N)NC(=O)[C@H](Cc2c[nH]cn2)NC(=O)[C@H](CCC(=O)O)NC(=O)CNC(=O)[C@H](Cc2c[nH]c3ccccc23)NC(=O)[C@H](CC(=O)O)NC(=O)[C@H](CCC(N)=O)NC(=O)[C@H](Cc2cn(C)c3ccccc23)NC1=O) [Compound 85]	–	< 100 nM
